Reference: patent US20260168005A1, “DRUG SCREENING METHOD BASED ON DRUG DISCOVERY CONCEPT OF CANCER CELL PROLIFERATION INHIBITION INDUCED BY DISRUPTION OF CHROMOSOME REGULATION DUE TO PLK1 KINASE ACTIVATION” (JAPANESE FOUNDATION FOR CANCER RESEARCH, priority 2022, published 2026)
No end group written: not given here.

B1: PxVXL peptide (negative control peptide that does not bind to PLK1) (peptide)
peptide: NHTQCQLVPVVEIGISERQN
notes: Printed in the text as NHTQCQLVPVVEIGISERON; The 'O' may be a printing error

How the values were obtained:
[1] = molecular target: endogenous Plk1 (UniProt P53350); assay: cell-based or functional assay
Chain of endogenous Plk1 (P53350 2-603 limits assumed): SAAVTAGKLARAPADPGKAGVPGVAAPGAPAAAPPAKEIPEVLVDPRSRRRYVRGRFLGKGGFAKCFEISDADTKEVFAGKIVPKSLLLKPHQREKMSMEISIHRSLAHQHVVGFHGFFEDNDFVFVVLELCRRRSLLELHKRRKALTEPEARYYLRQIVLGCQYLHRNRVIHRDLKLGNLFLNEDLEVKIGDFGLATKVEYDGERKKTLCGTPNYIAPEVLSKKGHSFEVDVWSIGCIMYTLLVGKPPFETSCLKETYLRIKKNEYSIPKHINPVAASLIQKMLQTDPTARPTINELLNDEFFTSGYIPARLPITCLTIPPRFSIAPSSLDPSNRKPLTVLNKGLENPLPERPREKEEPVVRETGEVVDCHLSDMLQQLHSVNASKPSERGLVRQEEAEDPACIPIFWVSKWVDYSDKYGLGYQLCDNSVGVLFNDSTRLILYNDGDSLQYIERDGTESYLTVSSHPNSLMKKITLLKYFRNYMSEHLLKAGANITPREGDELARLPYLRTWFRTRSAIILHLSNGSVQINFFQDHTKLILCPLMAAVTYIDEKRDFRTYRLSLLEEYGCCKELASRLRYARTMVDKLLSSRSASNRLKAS

[2] = molecular target: recombinant GST-His-Plk1 (Homo sapiens, UniProt P53350); assay: Intramolecular TR-FRET assay of kinase domain / Polo-Box domain association; type: binding; conditions: Plk1 0 to 100 nM; pPON 0 to 1000 µM, PxVXL 25 to 100 µM; room temperature 1 hour, then GST-Tb and His-d2 3 hours (FIG. 7B)
Chain of recombinant GST-His-Plk1 (P53350 whole entry, the tested form may be a part): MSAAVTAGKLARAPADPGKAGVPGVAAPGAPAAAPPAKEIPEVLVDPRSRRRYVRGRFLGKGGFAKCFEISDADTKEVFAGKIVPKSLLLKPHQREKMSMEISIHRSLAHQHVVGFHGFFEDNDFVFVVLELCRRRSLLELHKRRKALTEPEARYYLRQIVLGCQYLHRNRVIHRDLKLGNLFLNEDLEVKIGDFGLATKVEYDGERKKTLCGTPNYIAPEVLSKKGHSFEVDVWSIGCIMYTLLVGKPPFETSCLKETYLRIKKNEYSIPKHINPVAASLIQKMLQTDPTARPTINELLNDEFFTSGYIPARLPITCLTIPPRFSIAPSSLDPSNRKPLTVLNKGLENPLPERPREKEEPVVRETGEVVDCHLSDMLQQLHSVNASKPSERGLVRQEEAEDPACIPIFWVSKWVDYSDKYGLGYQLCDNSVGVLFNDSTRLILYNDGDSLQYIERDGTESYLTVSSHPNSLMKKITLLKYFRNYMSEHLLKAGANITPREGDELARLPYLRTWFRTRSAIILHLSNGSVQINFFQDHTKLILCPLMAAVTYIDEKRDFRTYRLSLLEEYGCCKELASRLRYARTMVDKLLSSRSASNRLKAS
Excerpt: In other words, it is an assay system that reflects the folding state within Plk1 molecules, and a screening system for drug discovery sees according to the mechanism of action of “inhibiting the suppressive association within the molecules to lead to kinase activation”. A fluorescence resonance energy transfer (FRET) assay system that detects the interaction of PBD that suppressively associates with the Plk1 kinase domain was constructed. The design was made as follows: a full-length recombinant protein was purified, and a donor (GST-Tb) were placed in the kinase domain and an acceptor (His-d2) in the PBD using antibodies that act as luminescent agents based on the conformational information so that the FRET reaction would efficiently occur.
A recombinant Plk1 in which a GST tag was added into a pFastBacl vector at the N-terminus, and a 6His-tag was inserted in the vicinity of the N-terminus of PB1 (Polo-Box 1) was constructed (left in FIG. 7A, GST-His-Plk1). […]
Intramolecular FRET analysis was performed using the recombinant GST-His-Plk1. […] Then, GST-Tb and His-d2 (PerkinElmer, Inc., MAb Anti-GST-Tb cryptate, MAb Anti-6HIS-d2) were added thereto to react at room temperature for 3 hours, and the emission signals were measured using the time-resolved fluorescence-fluorescence resonance energy transfer method (TR-FRET). […]

[3] = tested on: HeLa cells; assay: Cell death on expression of GFP-tagged PON peptide, live cell imaging; type: cell-based; conditions: plasmid transfection, GFP tag at N-terminus, live cell imaging (FIG. 6B)
Excerpt: (§1) Plasmids that express WT ([…]: SEQ ID NO: 1) and a TA mutant (Plk1 unbound, […]: SEQ ID NO: 2) of the PON peptide with a GFP tag added to the N-terminus were introduced into HeLa cells by a plasmid transfection method with FuGENE HD transfection Reagent (Promega Corporation) and into RPE1 cells by a nucleofection method with 4D nucleofector (Lonza Group Ltd.). Since the PON peptide binds to the PBD upon phosphorylation by Cdk1, a TA mutant of the PON peptide in which the phosphorylation site was substituted with Ala was used as a negative control.
(§2) Observation was performed using live cell imaging, and the number of cells that underwent cell death in cells with GFP expression observed was counted. […] In other words, suppression of the association of the PBD and KD of endogenous Plk1 can cause significant cell growth suppression to be induced in cancer cells (FIG. 6B). From the fact that induction of cell death due to Plk1 activation is not observed in normal cells, compounds that activate Plk1 are expected to exert an effect in a cancer cell-specific manner.

[4] = molecular target: recombinant GST-His-Plk1 (WT) (Homo sapiens, UniProt P53350); assay: ADP-Glo kinase assay with dephosphorylated casein substrate; type: biochemical; conditions: pPON 0 to 1000 M; 0.5 μg dephosphorylated casein; 5 µM ATP; room temperature 1 hour (FIG. 10A)
Chain of recombinant GST-His-Plk1 (WT) (Homo sapiens, UniProt P53350) (P53350 whole entry): as the sequence (P53350 whole entry, the tested form may be a part) above
Method: Further, the kinase activity of GST-His-Plk1 was evaluated by a kinase assay. First, it was confirmed that the kinase activity of the recombinant GST-His-Plk1, which contained a His-tag for FRET in the molecule, was equivalent to that of the one without the tag. Next, GST-His-Plk1 was used and mixed with 0.5 μg of dephosphorylated casein as a phosphorylation substrate in the presence of pPON ([…]), a kinase reaction was performed at room temperature for 1 hour in the presence of 5 µM of ATP, and a kinase reaction was performed between the recombinant GST-His-Plk1 (WT) (0 to 3.36 μM) and the dephosphorylated casein. Using an ADP-Glo (trademark) kinase assay kit (Promega Corporation), the kinase activity was measured by an ADP-Glo method, which quantifies in the […]. […] Also, the results of the kinase assays using the S137D/T210D mutant and S137D mutant also indicate that high kinase activity can be obtained when the intramolecular association is inhibited (FIG. 10B). Accordingly, the kinase assay can be used as a screening method that detects the association between the kinase domain and PBD of Plk1, and suppression of the association can be detected. Also, in the case of using the kinase assay for screening, a construct in which a kinase domain and PBD are separated can also be used.

[5] = tested on: RPE1 cells; assay: Cell death on expression of GFP-tagged PON peptide, live cell imaging; type: cell-based; conditions: RPE1 normal diploid cells, nucleofection, GFP tag at N-terminus, live cell imaging (FIG. 6B)
Excerpt: as §1, §2

[6] = molecular target: T1, recombinant GST-His-Plk1 (WT) (UniProt P53350 2-603, limits assumed); assay: intramolecular TR-FRET on GST-His-Plk1 (indirect read-out)
T1 construct: mature; Made in the Baculovirus/Sf9 system and purified on Glutathione Sepharose; also called Plk1 recombinant protein; wild-type GST-His-Plk1; not shown: N-terminal GST tag
T1 sequence (P53350 2-603 limits assumed): as the sequence (P53350 2-603 limits assumed) above

Molecule | FRET signal (His-d2 relative to GST-Tb) [2] | death of cells (percentage of GFP-expressing cells that underwent cell death) [3] | further results
PON peptide WT with a GFP tag added to the N-terminus | – | – | percentage of cell death in GFP-expressing HeLa cells (live cell imaging) [1]: > 70%
NHTQCQLVPVVEIGISERON (NHTQCQLVPVVEIGISERQN) [PxVXL, reference compound] | this effect was not observed | – | –
ESCFTNAAFSSAPKK [TA mutant, reference compound] | – | about 30% | –
pPON: pPON peptide (SEQ ID NO: 1) reacted with recombinant Plk1 in FRET and kinase assays (ESCFTNAAFSSTPKK; also: phosphorylated, position not given here) | FRET signals were reproducibly observed to gradually decrease | – | kinase activity [4]: kinase activity increased depending on the amount of pPON added
ESCFTNAAFSSTPKK [PON peptide] | – | ≥ 70% | increase in cell death [5]: no increase in cell death was observed
B1 | – | – | binding result [6]: no binding (tested: 25 to 100 UM)
